Source: paper doi:10.1101/144360 (bioRxiv, 2017)
AGT = not defined here

Target: T1, 6xHIS-SH3_(Boi1) (S. cerevisiae, UniProt P38041 13-77)
T1 sequence: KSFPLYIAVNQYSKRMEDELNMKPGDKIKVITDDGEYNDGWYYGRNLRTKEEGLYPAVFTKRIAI
Test: SPR

6xHis-SVSSKGPSNSLNLSTADLSLN-{AGT} (reading uncertain; also: AGT tag covalently labeled with SNAP-Biotin) [6xHis-Exo84_(121-141)-AGT]
Kd: ~1000 nM
